# Reference: PMC5227068
# B1: P. reichenowi var85 CIDRα5 (domain or fragment)
# chain: PECGVVRNGGTFQKNDEKEGDCSGKNEEYKPPEGVTEHDINFLYSGEGHEDMTKKLSGFCKKPEDKKGTRNEQWKCYYEKAENNMCKMTNKGANDNEHAKMMSFNDFFNFWVSHLLTDTINWRKELNRCIKASKSETCEKKCNKNCKCFQKWIEKKKVEWEEVKDQYDEQKDMDIFNPYWILEYDLEEQLLPIMEKNNSDLELIGKMKEIIGKNYKNKELKRTDVNAIDILLKHELKDATTCVENDPQENC
# modifications: not checked
# Columns and labels:
# [1] = molecular target: recombinant human CD36 (human), P16671; assay: BLI; Octet Qke; hisCD36 immobilised on Ni-NTA biosensors, CIDR domains in solution; kinetics buffer (PBS, 0.02% Tween-20, 100 μg/ml bovine serum albumin, 0.005% sodium azide); association 600 or 900 s, dissociation 300 to 600 s; 1:1 fit
# Sequence of recombinant human CD36 (human), P16671 (P16671 whole entry, the tested form may be a part): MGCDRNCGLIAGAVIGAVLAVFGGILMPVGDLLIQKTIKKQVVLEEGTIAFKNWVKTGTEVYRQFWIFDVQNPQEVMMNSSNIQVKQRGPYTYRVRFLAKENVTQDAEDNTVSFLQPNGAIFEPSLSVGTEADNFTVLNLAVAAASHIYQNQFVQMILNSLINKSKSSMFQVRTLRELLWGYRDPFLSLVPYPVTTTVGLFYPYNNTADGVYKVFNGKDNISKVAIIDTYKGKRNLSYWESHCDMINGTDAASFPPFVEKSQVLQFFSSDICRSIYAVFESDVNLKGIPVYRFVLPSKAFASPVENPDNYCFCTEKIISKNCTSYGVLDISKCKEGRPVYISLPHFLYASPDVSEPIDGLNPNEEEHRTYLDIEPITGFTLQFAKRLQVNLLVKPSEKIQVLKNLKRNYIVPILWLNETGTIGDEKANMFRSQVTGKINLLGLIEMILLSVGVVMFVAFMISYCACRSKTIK
# [2] = molecular target: recombinant human CD36 (human), P16671; assay: BLI; Octet Qke; hisCD36 immobilised on Ni-NTA biosensors, CIDR domain in kinetics buffer (PBS, 0.02% Tween-20, 100 ug/ml BSA, 0.005% sodium azide); association 600 or 900 s, dissociation 300 to 600 s; double-reference subtracted data fitted to a 1:1 binding model
binder,measurement,setting,value
B1,Kd,[1],1.7 nM
same,koff,[2],3.42e-05 s⁻¹
same,kon,[2],19800 M⁻¹ s⁻¹
